Data taken from patent publication US11858993B2, “Multi-specific antibodies with affinity for human A33 antigen and DOTA metal complex and uses thereof” (Memorial Sloan Kettering Cancer Center, priority 2015, dated 2024).

How the values were obtained:
[1] = target: T1, Recombinant human A33 protein (Homo sapiens, UniProt Q99795); assay: Biacore T100 surface plasmon resonance, binding to human A33 antigen; settings: Biacore T100, bivalent analyte model
T1 construct: purchased Novoprotein
T1 sequence (Q99795 22-319): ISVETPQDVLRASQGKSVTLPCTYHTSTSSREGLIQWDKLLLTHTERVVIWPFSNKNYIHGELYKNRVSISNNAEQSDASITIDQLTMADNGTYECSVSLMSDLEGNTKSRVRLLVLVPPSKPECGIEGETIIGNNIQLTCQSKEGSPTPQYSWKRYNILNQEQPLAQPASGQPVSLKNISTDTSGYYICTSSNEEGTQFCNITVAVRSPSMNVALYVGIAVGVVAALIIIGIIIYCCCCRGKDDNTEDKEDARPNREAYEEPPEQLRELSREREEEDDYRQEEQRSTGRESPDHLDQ
Protocol: Binding affinity was measured by Biacore T100.
Biacore T100 Biosensor, CM5 sensor chip, and related reagents were purchased from GE Healthcare. Recombinant human A33 protein was purchased from Novoprotein. A BSA-(Y)-DOTA-Bn conjugate was prepared as described (Cheal et al., supra). A33 and DOTA antigens were immobilized using the Amino Coupling kit (GE Healthcare). Purified bispecific antibodies and control antibodies were analyzed, and data were fit to a bivalent analyte model using the Biacore T100 evaluation software as described (Cheal et al., supra).

[2] = Stability by SE-HPLC and Biacore after freeze and thaw cycles; type: physicochemical; settings: after multiple freeze and thaw cycles

With “huA33-C825: bispecific antibody: humanized A33 IgG1 with murine C825 anti-DOTA-Bn scFv linked to the light chain C-terminus” the koff [1] was 0.00581 s⁻¹, the kon [1] was 91500 M⁻¹ s⁻¹ and the “stability by SE-HPLC and Biacore” value [2] was “remained stable”.
